T1: Boi2, P39969
T1 sequence (P39969 32-116, looked up): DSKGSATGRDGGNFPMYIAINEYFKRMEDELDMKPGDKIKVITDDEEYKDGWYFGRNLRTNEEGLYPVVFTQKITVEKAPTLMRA

T2: Sla1-3, P32790
T2 sequence (P32790 344-424, looked up): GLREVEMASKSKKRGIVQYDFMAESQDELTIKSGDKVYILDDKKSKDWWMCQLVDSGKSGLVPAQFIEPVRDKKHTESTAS

T3: Lsb1, P53281
T3 sequence (P53281 45-122, looked up): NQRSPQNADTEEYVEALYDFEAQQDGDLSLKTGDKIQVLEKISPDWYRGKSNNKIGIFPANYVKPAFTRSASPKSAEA

T4: Pin3, Q06449
T4 sequence (Q06449 53-122, looked up): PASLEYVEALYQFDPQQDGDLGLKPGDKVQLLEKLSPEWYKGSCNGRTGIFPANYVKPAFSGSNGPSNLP

T5: Boi1, P38041
T5 sequence (P38041 1-86, looked up): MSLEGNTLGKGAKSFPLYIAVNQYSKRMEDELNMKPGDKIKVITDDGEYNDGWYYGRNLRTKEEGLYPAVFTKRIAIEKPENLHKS

T6: Cdc25, P04821
T6 sequence (P04821 50-136, looked up): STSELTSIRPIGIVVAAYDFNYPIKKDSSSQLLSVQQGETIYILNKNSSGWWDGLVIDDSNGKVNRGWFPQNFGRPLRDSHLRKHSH

T7: Myo5, Q04439
T7 sequence (Q04439 1072-1160, looked up): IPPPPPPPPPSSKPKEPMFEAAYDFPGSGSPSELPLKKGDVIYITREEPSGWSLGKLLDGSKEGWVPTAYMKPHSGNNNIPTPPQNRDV

T8: Abp1, P15891
T8 sequence (P15891 535-592, looked up): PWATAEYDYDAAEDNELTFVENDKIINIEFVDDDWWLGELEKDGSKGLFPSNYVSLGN

T9: Hof1, Q05080
T9 sequence (Q05080 590-669, looked up): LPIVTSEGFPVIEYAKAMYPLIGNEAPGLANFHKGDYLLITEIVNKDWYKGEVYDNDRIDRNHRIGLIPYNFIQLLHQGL

T10: Pex13, P80667
T10 sequence (P80667 295-386, looked up): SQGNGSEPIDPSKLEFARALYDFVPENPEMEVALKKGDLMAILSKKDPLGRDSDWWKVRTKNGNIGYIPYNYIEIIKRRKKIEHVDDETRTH

T11: Bzz1-2, P38822
T11 sequence (P38822 568-633, looked up): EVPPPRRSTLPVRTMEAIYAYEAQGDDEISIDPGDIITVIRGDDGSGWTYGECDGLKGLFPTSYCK

T12: Bbc1, P47068
T12 sequence (P47068 1-78, looked up): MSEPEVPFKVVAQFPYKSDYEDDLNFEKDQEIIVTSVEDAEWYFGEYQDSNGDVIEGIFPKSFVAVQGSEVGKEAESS

T13: Lsb3, P43603
T13 sequence (P43603 385-451, looked up): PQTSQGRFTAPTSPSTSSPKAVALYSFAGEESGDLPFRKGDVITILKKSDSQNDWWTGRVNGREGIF

T14: Nbp2, Q12163
T14 sequence (Q12163 103-180, looked up): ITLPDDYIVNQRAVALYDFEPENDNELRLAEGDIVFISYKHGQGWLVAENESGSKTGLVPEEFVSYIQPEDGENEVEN

T15: Bzz1-1, P38822
T15 sequence (P38822 478-572, looked up): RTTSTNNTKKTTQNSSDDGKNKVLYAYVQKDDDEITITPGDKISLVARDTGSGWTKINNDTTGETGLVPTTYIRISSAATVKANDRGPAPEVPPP

T16: Fus1, P11710
T16 sequence (P11710 432-512, looked up): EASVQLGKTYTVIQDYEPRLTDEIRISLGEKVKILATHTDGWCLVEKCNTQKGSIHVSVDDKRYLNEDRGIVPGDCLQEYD

T17: Lsb4, P32793
T17 sequence (P32793 402-468, looked up): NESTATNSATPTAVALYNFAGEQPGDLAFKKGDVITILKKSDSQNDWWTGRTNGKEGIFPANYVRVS

T18: Cyk3, Q07533
T18 sequence (Q07533 1-83, looked up): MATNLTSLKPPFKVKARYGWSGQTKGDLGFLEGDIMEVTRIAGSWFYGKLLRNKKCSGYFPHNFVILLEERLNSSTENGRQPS

T19: Hse1, P38753
T19 sequence (P38753 208-285, looked up): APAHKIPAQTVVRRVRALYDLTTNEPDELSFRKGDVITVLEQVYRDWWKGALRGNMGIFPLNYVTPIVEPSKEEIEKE

T20: Bud14, P27637
T20 sequence (P27637 247-328, looked up): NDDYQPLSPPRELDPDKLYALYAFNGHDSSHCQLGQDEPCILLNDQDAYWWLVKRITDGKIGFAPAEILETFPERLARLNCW

T21: Sla1-2, P32790
T21 sequence (P32790 60-140, looked up): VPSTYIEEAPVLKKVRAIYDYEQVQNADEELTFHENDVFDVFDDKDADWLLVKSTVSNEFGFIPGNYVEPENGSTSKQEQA


Key:
Experiment in all cases: SPOT array
Boi2, P39969 = target: T1, Boi2, P39969; conditions: median of control spots 1161
Sla1-3, P32790 = target: T2, Sla1-3, P32790; conditions: median of control spots 5475
Lsb1, P53281 = target: T3, Lsb1, P53281; conditions: median of control spots 388
Rvs167, P39743 = conditions: median of control spots 2707
Bem1-2, P29366 = conditions: median of control spots 4347
Pin3, Q06449 = target: T4, Pin3, Q06449; conditions: median of control spots 2171
Boi1, P38041 = target: T5, Boi1, P38041; conditions: median of control spots 1162
Myo3, P36006 = conditions: median of control spots 468
Cdc25, P04821 = target: T6, Cdc25, P04821; conditions: median of control spots 969
Myo5, Q04439 = target: T7, Myo5, Q04439; conditions: median of control spots 471
Bem1-1, P29366 = conditions: median of control spots 4282
Abp1, P15891 = target: T8, Abp1, P15891; conditions: median of control spots 935
Hof1, Q05080 = target: T9, Hof1, Q05080; conditions: median of control spots 4086
Sho1, P40073 = conditions: median of control spots 1148
Pex13, P80667 = target: T10, Pex13, P80667; conditions: median of control spots 1341
Bzz1-2, P38822 = target: T11, Bzz1-2, P38822; conditions: median of control spots 4538
Bbc1, P47068 = target: T12, Bbc1, P47068; conditions: median of control spots 796
Lsb3, P43603 = target: T13, Lsb3, P43603; conditions: median of control spots 406
Nbp2, Q12163 = target: T14, Nbp2, Q12163; conditions: median of control spots 357
Bzz1-1, P38822 = target: T15, Bzz1-1, P38822; conditions: median of control spots 4446
Fus1, P11710 = target: T16, Fus1, P11710; conditions: median of control spots 1200
GST = conditions: median of control spots 978
Lsb4, P32793 = target: T17, Lsb4, P32793; conditions: median of control spots 397
Cyk3, Q07533 = target: T18, Cyk3, Q07533; conditions: median of control spots 1451
Hse1, P38753 = target: T19, Hse1, P38753; conditions: median of control spots 1727
Bud14, P27637 = target: T20, Bud14, P27637; conditions: median of control spots 956
Sla1-2, P32790 = target: T21, Sla1-2, P32790; conditions: median of control spots 712

Bem1-1, P29366, sequence (P29366 55-141): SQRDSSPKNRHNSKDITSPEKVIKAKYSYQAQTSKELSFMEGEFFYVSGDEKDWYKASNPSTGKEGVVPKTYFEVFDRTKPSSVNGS
Sho1, P40073, sequence (P40073 287-367): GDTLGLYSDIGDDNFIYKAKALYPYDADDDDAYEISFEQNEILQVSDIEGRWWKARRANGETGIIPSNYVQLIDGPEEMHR
Rvs167, P39743, sequence (P39743 419-482): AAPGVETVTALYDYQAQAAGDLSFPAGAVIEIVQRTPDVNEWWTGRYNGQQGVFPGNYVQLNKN
Bem1-2, P29366, sequence (P29366 139-227): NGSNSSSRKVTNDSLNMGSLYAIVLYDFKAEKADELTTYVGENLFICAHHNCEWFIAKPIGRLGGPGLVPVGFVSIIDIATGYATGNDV

Row | SPOT intensity (Boi2, P39969) | SPOT intensity (Sla1-3, P32790) | SPOT intensity (Lsb1, P53281) | SPOT intensity (Rvs167, P39743) | SPOT intensity (Bem1-2, P29366) | SPOT intensity (Pin3, Q06449) | SPOT intensity (Boi1, P38041) | SPOT intensity (Myo3, P36006) | SPOT intensity (Cdc25, P04821) | SPOT intensity (Myo5, Q04439) | SPOT intensity (Bem1-1, P29366) | SPOT intensity (Abp1, P15891) | SPOT intensity (Hof1, Q05080) | SPOT intensity (Sho1, P40073) | SPOT intensity (Pex13, P80667) | SPOT intensity (Bzz1-2, P38822) | SPOT intensity (Bbc1, P47068) | SPOT intensity (Lsb3, P43603) | SPOT intensity (Nbp2, Q12163) | SPOT intensity (Bzz1-1, P38822) | Binder | further results
1 | 1 | 9 | 12 | 0 | 3 | 142 | 2 | 35 | 12 | 11 | 0 | 105 | 0 | 47 | 30 | 0 | 13 | 14 | 0 | 1 | KIRRSSLMIPNPQQF | SPOT intensity (Fus1, P11710): 21; SPOT intensity (GST): 3; SPOT intensity (Lsb4, P32793): 3; SPOT intensity (Cyk3, Q07533): 2; SPOT intensity (Hse1, P38753): 1; SPOT intensity (Bud14, P27637): 5; SPOT intensity (Sla1-2, P32790): 4
2 | 0 | 3 | 44 | 0 | 0 | 65 | 1 | 69 | 108 | 14 | 0 | 289 | 0 | 367 | 29 | 2 | 43 | 28 | 159 | 0 | TKFRISLGLPVGAIM | SPOT intensity (Fus1, P11710): 32; SPOT intensity (GST): 0; SPOT intensity (Lsb4, P32793): 46; SPOT intensity (Cyk3, Q07533): 0; SPOT intensity (Hse1, P38753): 8; SPOT intensity (Bud14, P27637): 6; SPOT intensity (Sla1-2, P32790): 9
3 | 0 | 18 | 0 | 0 | 3 | 32 | 1 | 0 | 1 | 0 | 0 | 0 | 3 | 1 | 10 | 0 | 0 | 0 | 0 | 0 | WTQRRGPLVVYAEDN | SPOT intensity (Fus1, P11710): 2; SPOT intensity (GST): 0; SPOT intensity (Lsb4, P32793): 1; SPOT intensity (Cyk3, Q07533): 0; SPOT intensity (Hse1, P38753): 1; SPOT intensity (Bud14, P27637): 0; SPOT intensity (Sla1-2, P32790): 0
4 | 0 | 155 | 1190 | 4 | 800 | 26 | 3 | 35 | 43 | 4 | 0 | 259 | 6 | 90 | 27 | 522 | 68 | 18 | 219 | 52 | FIRKRAPTPPAPSRS | SPOT intensity (Fus1, P11710): 13; SPOT intensity (GST): 0; SPOT intensity (Lsb4, P32793): 26; SPOT intensity (Cyk3, Q07533): 2; SPOT intensity (Hse1, P38753): 76; SPOT intensity (Bud14, P27637): 10; SPOT intensity (Sla1-2, P32790): 0
5 | 0 | 19 | 7 | 0 | 0 | 4 | 2 | 6 | 26 | 0 | 0 | 78 | 2 | 114 | 5 | 1 | 48 | 2 | 0 | 1 | SKAKRPKFLLDLQIK | SPOT intensity (Fus1, P11710): 3; SPOT intensity (GST): 2; SPOT intensity (Lsb4, P32793): 5; SPOT intensity (Cyk3, Q07533): 4; SPOT intensity (Hse1, P38753): 2; SPOT intensity (Bud14, P27637): 6; SPOT intensity (Sla1-2, P32790): 2
6 | 2 | 47 | 9 | 0 | 0 | 3 | 10 | 19 | 28 | 3 | 2 | 167 | 3 | 173 | 0 | 11 | 217 | 5 | 40 | 0 | RVTRKRPREPKSTND | SPOT intensity (Fus1, P11710): 34; SPOT intensity (GST): 2; SPOT intensity (Lsb4, P32793): 10; SPOT intensity (Cyk3, Q07533): 4; SPOT intensity (Hse1, P38753): 12; SPOT intensity (Bud14, P27637): 9; SPOT intensity (Sla1-2, P32790): 2
